From US11007356B2, “Ingestible device for delivery of therapeutic agent to the gastrointestinal tract” (Progenity, Inc., priority 2018, dated 2021)

B1: concizumab (antibody, chains of the INN, looked up, V domains shown)
VH: EVQLVESGGGLVKPGGSLRLSCAASGFTFSNYAMSWVRQTPEKRLEWVATISRSGSYSYFPDSVQGRFTISRDNAKNSLYLQMNSLRAEDTAVYYCARLGGYDEGDAMDSWGQGTTVTVSS
VL: DIVMTQTPLSLSVTPGQPASISCKSSQSLLESDGKTYLNWYLQKPGQSPQLLIYLVSILDSGVPDRFSGSGSGTDFTLKISRVEAEDVGVYYCLQATHFPQTFGGGTKVEIK
B2: evolocumab (antibody, chains of the INN, looked up, V domains shown)
VH: EVQLVQSGAEVKKPGASVKVSCKASGYTLTSYGISWVRQAPGQGLEWMGWVSFYNGNTNYAQKLQGRGTMTTDPSTSTAYMELRSLRSDDTAVYYCARGYGMDVWGQGTTVTVSS
VL: ESALTQPASVSGSPGQSITISCTGTSSDVGGYNSVSWYQQHPGKAPKLMIYEVSNRPSGVSNRFSGSKSGNTASLTISGLQAEDEADYYCNSYTSTSMVFGGGTKLTVL
B3: emicizumab (antibody, chains of the INN, looked up, V domains shown)
VH: QVQLVQSGSELKKPGASVKVSCKASGYTFTDNNMDWVRQAPGQGLEWMGDINTRSGGSIYNEEFQDRVIMTVDKSTDTAYMELSSLRSEDTATYHCARRKSYGYYLDEWGEGTLVTVSS
VL: DIQMTQSPSSLSASVGDRVTITCKASRNIERQLAWYQQKPGQAPELLIYQASRKESGVPDRFSGSRYGTDFTLTISSLQPEDIATYYCQQYSDPPLTFGGGTKVEIK
VH2: QVQLVESGGGLVQPGGSLRLSCAASGFTFSYYDIQWVRQAPGKGLEWVSSISPSGQSTYYRREVKGRFTISRDNSKNTLYLQMNSLRAEDTAVYYCARRTGREYGGGWYFDYWGQGTLVTVSS
VL2: B3 VL
B4: pegfilgrastim (protein, UniProt P09919 31-207, looked up)
Granulocyte …: TPLGPASSLPQSFLLKCLEQVRKIQGDGAALQEKLVSECATYKLCHPEELVLLGHSLGIPWAPLSSCPSQALQLAGCLSQLHSGLFLYQGLLQALEGISPELGPTLDTLQLDVADFATTIWQQMEELGMAPALQPTQGAMPAFASAFQRRAGGVLVASHLQSFLEVSYRVLRHLAQP
modifications: N-terminal Met; PEG

How the values were obtained:
[1] = in vivo, sc; cited from earlier work
[2] = Dosing regimen model: required bioavailability for ingestible device (Tables 16, 17); conditions: for Eff Dose: approved dose x bioavailability of the approved route (Table 16)

| Molecule | Bioavail. (Baseline dose) [1] | Eff. Dose ([2]; baseline dose x bioavailability, SC (Table 17), assumed weight 70 kg) | Bio Avail (Approved Dosing Info) [1] | Eff Dose [2] |
| --- | --- | --- | --- | --- |
| B1 | 93.0% | 16.3 mg | – | – |
| B2 | – | – | 82% | 114.8 mg |
| B3 | – | – | 85% | 89.3 mg |
| B4 | – | – | 70% | 4.2 mg |
